Measured values from patent US20240279281A1, “Peptide Inhibitors of Interleukin-23 Receptor” (Janssen Pharmaceutica NV, priority 2023, published 2024).
Blank lines part the entries; values can stand above or below the binder they belong to. Positions of bridges follow the written chain, without caps; N, C: chain ends. Non-standard residues stand in square brackets, D forms with d. No end group written: not given here. 2Nal(6-OH) = N[C@@H](Cc1ccc2cc(O)ccc2c1)C(=O)O; Trp(7-Me) = Cc1cccc2c(C[C@H](N)C(=O)O)c[nH]c12; d(hLys(Me3)) = C[N+](C)(C)CCCCC[C@@H](N)C(=O)O; AEF = NCCOc1ccc(C[C@H](N)C(=O)O)cc1; 3Pal = N[C@@H](Cc1cccnc1)C(=O)O; Pen = CC(C)(S)[C@H](N)C(=O)O; Thp = NC1(C(=O)O)CCOCC1; Sar = CNCC(=O)O

Molecular target: T1, interleukin-23 receptor (IL-23R), Q5VWK5
T1 chain: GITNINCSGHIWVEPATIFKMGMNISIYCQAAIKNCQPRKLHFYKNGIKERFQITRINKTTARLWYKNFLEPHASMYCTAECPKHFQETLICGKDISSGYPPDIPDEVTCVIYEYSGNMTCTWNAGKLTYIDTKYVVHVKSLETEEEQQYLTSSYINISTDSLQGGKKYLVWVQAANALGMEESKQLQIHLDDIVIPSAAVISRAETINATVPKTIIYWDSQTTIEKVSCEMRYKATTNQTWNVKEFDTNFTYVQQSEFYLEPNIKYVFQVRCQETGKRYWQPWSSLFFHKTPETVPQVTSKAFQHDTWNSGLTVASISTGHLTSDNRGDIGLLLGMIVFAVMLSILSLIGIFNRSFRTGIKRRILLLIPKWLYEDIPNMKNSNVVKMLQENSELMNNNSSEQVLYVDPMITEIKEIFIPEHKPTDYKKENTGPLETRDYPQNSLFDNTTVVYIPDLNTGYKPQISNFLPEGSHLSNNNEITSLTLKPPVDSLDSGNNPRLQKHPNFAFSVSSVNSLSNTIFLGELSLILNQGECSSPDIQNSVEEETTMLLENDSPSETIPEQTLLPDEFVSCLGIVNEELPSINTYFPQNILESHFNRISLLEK
Experiment: cell-based or functional assay

- PBMC pSTAT3 IC50: < 1 nM
B1: SEQ ID NO: 140 (peptide)
peptide: R[Pen]ET[Trp(7-Me)]K[Pen][AEF][2Nal(6-OH)][Thp]EN[3Pal][Sar]
modifications: disulfide 2-7 (inferred); ends not checked; also: K6: lipidated lysine, lipid not given here

- PBMC pSTAT3 IC50: < 0.1 nM
B4: SEQ ID NO: 141 (peptide)
peptide: R[Pen]ET[Trp(7-Me)]K(Ac)[Pen][AEF][2Nal(6-OH)][Thp]EN[3Pal][Sar]
modifications: disulfide 2-7 (inferred); ends not checked

- PBMC pSTAT3 IC50: < 1 nM
B7: SEQ ID NO: 144 (peptide)
peptide: [d(hLys(Me3))][Pen]NT[Trp(7-Me)]K(Ac)[Pen][2‑amino‑3‑(4-(2-aminoethoxy)phenyl)propanoic acid][2‑amino‑3‑(6-hydroxynaphthalen-2-yl)propanoic acid][Thp]EN[3Pal][Sar]
modifications: disulfide 2-7 (inferred); ends not checked

- PBMC pSTAT3 IC50: < 0.1 nM
B9: SEQ ID NO: 145 (peptide)
peptide: [(R)‑2‑(2-(3-((5-carboxy-5-hydrazineylpentyl)amino)-3-oxopropoxy)ethoxy)‑N,N,N‑trimethylethan‑1‑aminium][Pen]NT[Trp(7-Me)]K(Ac)[Pen][2‑amino‑3‑(4-(2-aminoethoxy)phenyl)propanoic acid][2‑amino‑3‑(6-hydroxynaphthalen-2-yl)propanoic acid][Thp]EN[3Pal][Sar]
modifications: disulfide 2-7 (inferred); ends not checked

- PBMC pSTAT3 IC50: < 0.1 nM
B10: SEQ ID NO: 142 (peptide)
peptide: R[Pen]ET[Trp(7-Me)]K(Ac)[Pen][2‑amino‑3‑(4-(2-aminoethoxy)phenyl)propanoic acid][2‑amino‑3‑(6-hydroxynaphthalen-2-yl)propanoic acid][Thp]EN[3Pal][Sar]K
modifications: disulfide 2-7 (inferred); ends not checked; also: Lys15: lipidated lysine, lipid not given here

Second part, the binder before the results:

B2: SEQ ID NO: 139 (peptide)
peptide: [Pen]NT[Trp(7-Me)]K(Ac)[Pen][AEF][2Nal(6-OH)][Thp]K(Ac)N[3Pal][Sar]K
modifications: disulfide 1-6 (inferred); ends not checked; also: K14: lipidated lysine, lipid not given here
- PBMC pSTAT3 IC50: < 0.1 nM

B3: SEQ ID NO: 129 (peptide)
peptide: [Pen]NT[Trp(7-Me)]K(Ac)[Pen][AEF][2Nal(6-OH)][Thp]KN[3Pal][Sar]
modifications: disulfide 1-6 (inferred); ends not checked; also: K10: lipidated lysine, lipid not given here
- PBMC pSTAT3 IC50: < 1 nM

B5: SEQ ID NO: 134 (peptide)
peptide: K[Pen]ET[Trp(7-Me)]K(Ac)[Pen][AEF][2Nal(6-OH)][Thp]K(Ac)N[3Pal][Sar]
modifications: disulfide 2-7 (inferred); ends not checked
- PBMC pSTAT3 IC50: < 1 nM

B6: SEQ ID NO: 128 (peptide)
peptide: [Pen]NT[Trp(7-Me)]K(Ac)[Pen][AEF][2Nal(6-OH)][Thp]KN[3Pal][Sar]
modifications: disulfide 1-6 (inferred); ends not checked; also: K10: lipidated lysine, lipid not given here
- PBMC pSTAT3 IC50: < 1 nM

B8: SEQ ID NO: 131 (peptide)
peptide: [Pen]NT[Trp(7-Me)]K[Pen][AEF][2Nal(6-OH)][Thp]K(Ac)N[3Pal][Sar]
modifications: disulfide 1-6 (inferred); ends not checked; also: K5: lipidated lysine, lipid not given here
- PBMC pSTAT3 IC50: < 1 nM
